Measurements from patent publication US20220363738A1.

Target: purified fragment of human Calnexin containing Amino acid 1-481 fused to human FC region (FC-CNX) (human) (UniProt P27824)
Assay: ELISA, coat CNX-Fc (figure title), antibody 1 ug/ml, HRP secondary, OD450 normalised to BSA

Sequence of purified fragment of human Calnexin containing Amino acid 1-481 fused to human FC region (FC-CNX) (human) (P27824 21-481 limits assumed, form in doubt): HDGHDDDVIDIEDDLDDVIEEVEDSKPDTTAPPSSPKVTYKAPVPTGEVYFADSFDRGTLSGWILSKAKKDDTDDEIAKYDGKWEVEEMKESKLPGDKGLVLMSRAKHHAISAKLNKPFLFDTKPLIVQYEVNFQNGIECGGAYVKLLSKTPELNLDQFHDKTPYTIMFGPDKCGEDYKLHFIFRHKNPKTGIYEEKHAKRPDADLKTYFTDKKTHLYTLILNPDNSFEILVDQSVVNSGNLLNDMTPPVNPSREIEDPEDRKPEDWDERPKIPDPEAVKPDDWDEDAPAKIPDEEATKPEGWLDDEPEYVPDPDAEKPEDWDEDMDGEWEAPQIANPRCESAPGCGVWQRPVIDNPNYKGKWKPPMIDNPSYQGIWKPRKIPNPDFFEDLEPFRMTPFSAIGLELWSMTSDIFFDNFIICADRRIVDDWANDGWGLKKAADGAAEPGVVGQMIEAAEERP

| OD450 (Normalised to BSA) | Substance |
| --- | --- |
| 0.9 | CRT ab92516 (antibody) |
| 4.79 | CNX ab10286 (antibody) |
| 0.51 | ctrl hIgG (antibody) |
